The values below come from patent US20150266951A1 (SNU R AND DB FOUNDATION, published 2015).

Test [1] concerns the target T1, recombinant human IP-10 protein (IFN-γ-inducible protein 10) (human, UniProt P02778 22-98).
T1 construct: also called IP-10 antigen; recombinant IP-10
T1 sequence: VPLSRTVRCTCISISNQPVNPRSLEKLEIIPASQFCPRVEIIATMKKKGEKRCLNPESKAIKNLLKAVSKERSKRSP
Put plainly: western blot on recombinant human IP-10 protein. For orientation: A western blot detects proteins with antibodies after separation by electrophoresis.

Test [2] concerns the target T2, Epitope 4 of IP-10 (amino acids 61-98), recombinant segment expressed in E. coli from pET41 (human).
T2 construct: Segment cloned EcoRI/XhoI into PET41 vector and tested as lysate of the expressing E. coli in western blot; any tags from the vector are not described; not shown: vector-coded fusion part of pET41 (GST is run as the negative control)
T2 chain: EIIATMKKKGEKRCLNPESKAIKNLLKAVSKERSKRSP
Nature of the test: western blot on recombinant IP-10 segments expressed in E. coli. The procedure: E. coli expressing each of the 4 epitopes of recombinant IP-10 was suspended in PBS buffer (137 mM NaCl, 2.7 mM KCl, 10 mM Na2HPO4, 2 mM KH2PO4) and the same volume of SDS-gel loading buffer (100 mM Tris-C1 (pH 6.8), 4% SDS, 0.2% bromophenol blue, 20% glycerol, 200 mM DTT) and heated at 100° C. for 5 min. The mixture was then centrifuged at 13,000 rpm for 10 min and the supernatant was separated on 12% SDS-PAGE, and the proteins separated on the gel were transferred to a polyvinylidenfluoride membrane. Western blot was performed using anti-IP-10 antibody and enhanced chemiluminescent reagent.

B1: anti-IP-10 monoclonal antibody #88 (antibody, V domains shown)
VH: EVMLVESGGGLVKPGGSLKLSCTVSGFTFSGYAMSWVRQTPEKRLEWVASITSGGSYTSYPDNMKGRLTISRDNDRNTLDLQMSSLRSEDTAMYFCTRHSPVIASWFAYWGQGTLVHC
VL: DVLMTQTPLSLPVSLGDQASISCRSSQSIVHSNGNTYLEWYLQKPGQSPKLLIYKVSNRFSGVPDRFSGSGSGTDFTLKISRVEAEDMGVYYCFQGSHVPFTFGSGTKLEIKR
notes: Mouse monoclonal antibody from a hybridoma; also called clone #88; clone #88 monoclonal antibody
As for B1, the binding result in test [1] and in test [2] was “binds” each time.

B2: anti-IP-10 monoclonal antibody #116 (antibody, V domains shown)
VH: QVQLQQSGPELVKPGASVKISCKASGYAFSSSWMNWVKQRPGQGLEWIGRIYPGDGDTNYNGKFKGKATLTADKSSSTAYMQLSSLTSVDSAVYFCARIGNYYGSSYLYWYFDVWGAGTTVTVS
VL: DIQMTQSPSSLSASLGGKVTITCKASQDIDKYIAWYQHRPGKGPSLLIHYTSTLQPGIPSRFSGSGSGKNYSFSISNLEPEDIATYYCLQYDNLLLTFGAGTKLELKR
notes: Mouse monoclonal antibody from a hybridoma; also called clone #116; clone #116 monoclonal antibody
B2: the binding result in test [1] and in test [2] was “binds” each time.

B3: anti-IP-10 monoclonal antibody #129 (antibody, V domains shown)
VH: QVQLKQSGPGLVQPSQSLSITCTVSGFSLTSYGVHWVRQSPGKGLEWLGVIWSGGSTDYNAAFISRLSISKDNSKSQVFFKMNSLQANDTAIYYCARNWGAMDYWGQGTSVTVSS
VL: DIVMTQSPSSLSVSAGEKVTMSCKSSQSLLNSGNQKNYLAWYQQKPGQPPKLLIYGASTRESGVPDRFTGSGSGTDFTLTISSVQAEDLAVYYCQNDHSYPLTFGAGTKLELKR
notes: Mouse monoclonal antibody from a hybridoma; also called clone #129; clone #129 monoclonal antibody
Take B3: the binding result in test [1] and in test [2] was “binds” in each case.

B4: anti-IP-10 monoclonal antibody #77 (antibody, V domains shown)
VH: QIQLVHSGPELKKPGETVKISCKASGYTFTDYSMHWVKQAPGKGLKWMGWINTETGEPTYADDFKGRFAFSLETSASTAYLQINNLKNEDTATYFCARMYDYSYYFDYWGQGTTLTVSS
VL: DIQMTQSPASLSVSVGETVTITCRASENIYSNLAWYQQKQGKSPQLLVYAATNLADGVPSRFSGSGSGTQYSLKINSLQSEDFGSYYCQHFWGTPYTFGGGTKLEIKR
notes: Mouse monoclonal antibody from a hybridoma; also called clone #77; clone #77 monoclonal antibody
Regarding B4, the binding result in test [1] and in test [2] was “binds” each time.
